Drawing on PMC5570508, this text covers Kd for four substances.

What all share (experiment): fluorescence polarisation; titration: 5-FAM-labeled protein at 0.5 or 1 μM titrated with unlabeled protein; 20°C; analysis buffer (20 mM NaH2PO4, 50 mM NaCl, 1 mM DTT pH 7); single site binding model
A general note: Polarisation of emitted light reports the rotation of a fluorescent probe.

Assay [1] addresses PfEMP1 Acidic Terminal Segment (ATS) of variant PF08_0141, fluorescently labeled (Q150C) (P. falciparum).
Assay [2] deals with KAHRP K2, fluorescently labeled (C414A/C450A) (P. falciparum).
Assay [3] deals with PfEMP1 ATS of variant PFF0845c, fluorescently labeled (H159C) (P. falciparum).

α spectrin construct spanning domains 17 to the protein C-terminus, sequence (P02549 1704-2395): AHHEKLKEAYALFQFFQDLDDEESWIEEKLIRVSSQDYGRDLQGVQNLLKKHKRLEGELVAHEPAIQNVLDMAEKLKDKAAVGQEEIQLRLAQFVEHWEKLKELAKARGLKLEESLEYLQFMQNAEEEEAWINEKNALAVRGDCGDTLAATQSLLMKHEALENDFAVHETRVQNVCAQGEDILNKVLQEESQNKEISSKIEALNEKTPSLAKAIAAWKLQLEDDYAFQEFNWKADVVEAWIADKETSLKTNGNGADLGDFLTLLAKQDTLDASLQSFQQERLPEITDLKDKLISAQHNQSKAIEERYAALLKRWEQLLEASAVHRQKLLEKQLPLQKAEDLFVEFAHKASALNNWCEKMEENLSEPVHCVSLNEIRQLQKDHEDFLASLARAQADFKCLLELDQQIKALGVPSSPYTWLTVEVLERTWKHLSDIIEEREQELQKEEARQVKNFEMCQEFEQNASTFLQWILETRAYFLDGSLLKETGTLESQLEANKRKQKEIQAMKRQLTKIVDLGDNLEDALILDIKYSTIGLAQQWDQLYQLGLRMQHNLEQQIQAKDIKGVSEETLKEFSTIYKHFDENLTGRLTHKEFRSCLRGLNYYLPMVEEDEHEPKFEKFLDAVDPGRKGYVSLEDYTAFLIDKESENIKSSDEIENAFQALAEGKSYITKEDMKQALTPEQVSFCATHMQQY
spectrin α chain domains 12–16, sequence (P02549 1174-1716): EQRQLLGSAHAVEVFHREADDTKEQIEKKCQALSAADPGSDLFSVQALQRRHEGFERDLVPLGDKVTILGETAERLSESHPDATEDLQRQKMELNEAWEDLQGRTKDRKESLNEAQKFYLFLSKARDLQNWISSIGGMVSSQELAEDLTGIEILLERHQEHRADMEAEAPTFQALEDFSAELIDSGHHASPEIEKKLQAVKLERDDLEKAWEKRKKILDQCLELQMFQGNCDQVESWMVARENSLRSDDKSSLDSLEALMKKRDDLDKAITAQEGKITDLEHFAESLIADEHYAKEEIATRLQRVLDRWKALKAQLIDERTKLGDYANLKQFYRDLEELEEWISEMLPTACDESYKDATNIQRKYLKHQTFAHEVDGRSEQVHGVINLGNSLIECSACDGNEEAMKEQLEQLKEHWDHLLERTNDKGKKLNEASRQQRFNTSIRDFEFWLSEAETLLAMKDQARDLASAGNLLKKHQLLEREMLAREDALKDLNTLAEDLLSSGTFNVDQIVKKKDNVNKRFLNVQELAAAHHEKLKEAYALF
spectrin β chain domains 10–14, sequence (P11277 1272-1804): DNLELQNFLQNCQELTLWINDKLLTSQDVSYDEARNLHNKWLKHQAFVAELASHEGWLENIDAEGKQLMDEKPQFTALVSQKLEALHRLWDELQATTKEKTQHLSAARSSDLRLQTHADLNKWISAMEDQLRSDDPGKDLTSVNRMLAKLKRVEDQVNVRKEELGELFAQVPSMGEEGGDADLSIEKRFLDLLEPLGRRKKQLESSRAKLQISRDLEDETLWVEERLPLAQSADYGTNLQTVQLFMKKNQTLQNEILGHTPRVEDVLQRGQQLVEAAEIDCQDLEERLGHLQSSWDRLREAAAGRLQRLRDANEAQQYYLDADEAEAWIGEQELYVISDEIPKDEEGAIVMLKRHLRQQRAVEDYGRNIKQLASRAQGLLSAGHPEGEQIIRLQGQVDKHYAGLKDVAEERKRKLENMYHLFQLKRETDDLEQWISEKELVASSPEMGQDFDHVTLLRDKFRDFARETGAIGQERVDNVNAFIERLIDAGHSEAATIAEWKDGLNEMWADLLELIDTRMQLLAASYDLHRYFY
spectrin α chain domain 17, sequence (P02549 1704-1828): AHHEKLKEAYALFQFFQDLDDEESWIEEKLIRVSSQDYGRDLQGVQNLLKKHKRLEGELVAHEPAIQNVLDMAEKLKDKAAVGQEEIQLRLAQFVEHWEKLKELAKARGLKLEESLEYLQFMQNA

As usually defined, the Kd is a measure of binding affinity in units of concentration. For the substance “α spectrin construct spanning domains 17 to the protein C-terminus (from UniProt P02549 1704-2395) (domain or fragment)”, in assay [1], the Kd was found to be 59 µM.

Turning to “spectrin β chain domains 10–14 (from UniProt P11277 1272-1804) (domain or fragment)”, the Kd in assay [2] came out at 50 µM.

“spectrin α chain domain 17 (from UniProt P02549 1704-1828) (domain or fragment)” returned a Kd in assay [3] of 24 µM.

In turn, “spectrin α chain domains 12–16 (from UniProt P02549 1174-1716) (domain or fragment)” came in with a Kd in assay [2] of 160 µM.
